# Results: patent publication US5019384A, “Immunonodulating compositions and their use” (Massachusetts Institute of Technology, priority 1989, dated 1991)
# Tests used:
# I-A^d = target: T1, I-A^d (Mus musculus, UniProt P01921+P04228); experiment: Gel filtration binding of 125I-labeled peptide to purified Ia (I-A^d)
# T1 construct: endogenous in cells
# T1 sequence (P04228 24-256): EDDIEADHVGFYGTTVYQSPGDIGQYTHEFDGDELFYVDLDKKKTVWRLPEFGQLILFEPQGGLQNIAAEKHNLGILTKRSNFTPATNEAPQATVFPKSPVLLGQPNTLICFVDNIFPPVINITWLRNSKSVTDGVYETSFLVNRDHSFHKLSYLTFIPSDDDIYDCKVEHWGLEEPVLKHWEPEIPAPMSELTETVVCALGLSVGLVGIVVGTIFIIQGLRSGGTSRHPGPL
# T1 sequence (P01921 28-265): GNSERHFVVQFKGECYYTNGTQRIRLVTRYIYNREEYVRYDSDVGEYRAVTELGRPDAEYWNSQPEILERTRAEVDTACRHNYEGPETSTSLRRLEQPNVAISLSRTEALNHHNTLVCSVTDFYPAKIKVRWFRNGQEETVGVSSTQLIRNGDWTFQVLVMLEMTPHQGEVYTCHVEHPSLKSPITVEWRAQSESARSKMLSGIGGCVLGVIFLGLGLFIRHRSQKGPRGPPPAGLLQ
# Excerpt: (§1) The peptide P12-26 was modified by the addition of a tyrosine residue to the N-terminus to serve as an acceptor for the ^125 I.
# (§2) Ia-molecules were purifed from Nonidet P-40 (NP-40) lysates of A20 (H2^d) or AKTB-1b (H2^k) cells by affinity chromatography using the following monoclonal antibodies: MK-D6 (I-A^d -specific), 10-3-6 (I-A^k -specific) specific) or 14-4-4 (I-E^d/k -specific) coupled to Sepharose 4B beads (Pharmacia Fine Chemicals, Sweden).
# (§3) A gel filtration assay was used for determining the degree of association between immunogenic peptides and Ia. The assay is described in: Buus, S. et al., Proceeding of the National Academy of Sciences, U.S.A. (1986) 83:3968, the teaching of which is incorporated herein by reference. Briefly, 40 μmole of purified Ia in 1 percent NP-40/PBS was mixed with 0.2 μmole of ^125 I-labeled peptide (approximately 200,000 cpm for each experiment) and incubated for 48 hours at room temperature to allow for formation of the Ia-peptide complex. The Ia-peptide complexes were separated from free peptide by gel filtration and the percentage of peptide bound to Ia was calculated as the ratio of the ^125 I-labeled peptide in the void volume to the total ^125 I-labeled peptide recovered.
# I-E^k [1] = target: T2, I-E^k (Mus musculus, UniProt P04224+P04230); experiment: Gel filtration binding of 125I-labeled peptide to purified Ia (I-E^k)
# T2 sequence (P04224 26-255): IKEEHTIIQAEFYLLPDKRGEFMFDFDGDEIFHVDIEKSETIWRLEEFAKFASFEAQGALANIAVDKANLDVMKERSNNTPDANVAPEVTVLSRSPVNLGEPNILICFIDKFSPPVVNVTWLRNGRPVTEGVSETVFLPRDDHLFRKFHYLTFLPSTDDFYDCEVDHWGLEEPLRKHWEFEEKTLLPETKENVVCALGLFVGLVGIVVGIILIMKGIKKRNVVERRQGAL
# T2 sequence (P04230 27-264): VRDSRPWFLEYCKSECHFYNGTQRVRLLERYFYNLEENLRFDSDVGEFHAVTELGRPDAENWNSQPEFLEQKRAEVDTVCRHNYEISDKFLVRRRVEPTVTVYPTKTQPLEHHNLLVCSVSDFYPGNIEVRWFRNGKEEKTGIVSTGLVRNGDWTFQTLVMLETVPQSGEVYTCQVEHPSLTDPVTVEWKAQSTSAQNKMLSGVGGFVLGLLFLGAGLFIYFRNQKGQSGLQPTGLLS
# Excerpt: as §1, §2, §3
# I-A^k = target: T3, I-A^k (Mus musculus, UniProt P01910+P06343); experiment: Inhibition of binding of 125I-labeled Lysozyme (Hen) (P46-61) to I-A^k; conditions: for Competition with the lysozyme-derived peptide for binding to I-A^k (in words): up to 2500 μM
# T3 construct: endogenous in cells
# Excerpt: as §2, §3
# For the inhibition assay a dose-range of unlabeled cI P12-26 peptide was added to the incubation mixture of Ia and ^125 I-labeled peptide ([…] μM). The degree of association between Ia and labeled peptide was determined by gel filtration as described in Table 1. The percentage of peptide bound in the absence of inhibitors is 10.6 percent for ovalbumin (323 to 339)/I-A^d; 6.5 percent for myoglobulin 132 to 153)/I-E^d; 21.5 percent for lysozyme (46 to 61)/I-A^k; 2.5 percent for cytochrome C (88 to 104)/I-E^k. The concentration of inhibitory peptide required to obtain a 50 percent inhibition of binding was calculated. Each experiment was repeated three times.
# I-E^k [2] = target: T2, I-E^k; experiment: Inhibition of binding of 125I-labeled Cytochrome c (pigeon) (P88-104) to I-E^k; conditions: 125I Cytochrome c (pigeon) (P88-104) bound to I-E^k; read-out: Concentration (μM) of P12-26 Required for 50 percent Inhibition
# Excerpt: as §2
# as §3, with “Briefly, 40 μmole of purified Ia in 1 percent NP-40/PBS was mixed with 0.2 μmole of ^125 I-labeled peptide (approximately 200,000 cpm for each experiment) and incubated for 48 hours at room temperature to allow for formation of the Ia-peptide complex.” left out
# For the inhibition assay a dose-range of unlabeled cI P12-26 peptide was added to the incubation mixture of Ia and ^125 I-labeled peptide (600, 120, 24, ad 48 μM). The degree of association between Ia and labeled peptide was determined by gel filtration as described in Table 1. […] The concentration of inhibitory peptide required to obtain a 50 percent inhibition of binding was calculated. […]
# [3] = test system: lymph node-derived T-cells from P12-26 immune mice; experiment: Standard lymph node proliferation assay (thymidine incorporation); type: cell-based; conditions: cultured with 10 μM P12-26
# Excerpt: The proliferation of these same cultures was not inhibited (75,000 cpm) by a monoclonal antibody, 34-1-4S, which is specific for I-E^d and which inhibits the stimulation of a hemocyanin specific, I-E^d resticted T-cell hybridoma.
# [4] = test system: monoclonal antibody B3.11; experiment: Inhibition of monoclonal antibody B3.11 binding to BSA conjugated to P12-26; conditions: BSA conjugated to P12-26 adsorbed to microwells; inhibitors listed in order of decreasing inhibition
# Excerpt: Antibody recognition of (NANP)3-12-26 by monoclonal antibodies was studied. The antigen, bovine serum albumin (BSA) conjugated to P12-26 was adsorbed to microwells and horseradish peroxidase (HRP) labeled antibody specific for P12-26 added. In the absence of (NANP)3-12-26 or in the presence of P12-26LF, there is no inhibition of monoclonal antibody B3.11 binding.
# [5] = test system: monoclonal antibody specific for (NANP)50; experiment: Inhibition of binding of monoclonal antibody specific for (NANP)50 to (NANP)50; design: species or system mice; conditions: radiolabelled (NANP)50 bound to microwells
# Excerpt: The above study was repeated except the antigen was radiolabelled (NANP)50 which was bound to microwells.
# [6] = test system: Lymph node-derived T-cell; experiment: Lymph node-derived T-cell proliferation in mice immunized with (NANP)3-12-26; type: in vivo; conditions: eight days after immunization with (NANP)3-12-26
# Description: For T-cell proliferation studies 100 μg of (NANP)3-12-26 emulsified in CFA was injected in the base of the tail and also food pad of mice on day 0. […] Cells were seeded at 8×10^5 /well flat bottom microtiter plates 1/2 volume in 0.1 ml RPMI containing 10% FCS, […], penicillin, streptomycin and antigen. On day 2, 1 μCi of ^3 H thymidine (ICN) was added to triplicate or duplicate cultures. 16 hr later cells were harvested and incorporated ^3 H was assayed by scintillation counter.
# All T-cell activity is directed to the Class II binding sequence.
substance,measurement,setting,value
P12-26: derived from the cI protein of bacteriophage lambda (residues 12-26),Binding to the I-A^d molecule (in words),I-A^d,able to bind to both molecules as expected
same,Binding to the I-E^k molecule (in words),I-E^k [1],able to bind to both molecules as expected
same,IC50,"I-A^k; 125I Lysozyme (Hen) (P46-61) bound to I-A^k, read-out: Concentration (μM) of P12-26 Required for 50 percent Inhibition",> 2500 µM
same,Competition with the lysozyme-derived peptide for binding to I-A^k (in words),I-A^k,is not observed
same,Competition with the lysozyme-derived peptide for binding to I-A^k (in words),I-A^k; listed as P1226,No inhibition of binding was detected
same,IC50,I-E^k [2],300 µM
same,Proliferation (thymidine incorporation),[3],"68,000 cpm"
same,Inhibition of monoclonal antibody B3.11 binding,[4],Inhibition is observed
same,Inhibition of binding of monoclonal antibody specific for (NANP)50,[5],did not inhibit binding
same,T-cell proliferation by thymidine incorporation on culture with peptide,[6],T-cell proliferation as assayed by thymidine incorporation was seen
